# From patent publication US20070004634A1 (published 2007)
# Values joined by “and” are separate entries in the source; they are usually repeats but may differ in a detail not shown here. Equal values may be shown once. Positions of bridges follow the written chain, without caps; N, C: chain ends. No end group written: not given here. MBP = maltose binding protein (pMAL-c2)
# B1: D112-12-RP30-IGF (peptide)
# chain: ADYKDCWARPCGDAANFYDWFVQQASKKGGSGGSGGSGGSSFYSCLESLVNGGAERSDGQWEGCRAAAGAPVPYPDPLEPRPG
# B2: RP30-IGF-12-D112 (peptide)
# chain: ADYKDSFYSCLESLVNGGAERSDGQWEGCRGGSGGSGGSGGSCWARPCGDAANFYDWFVQQASKKAAAGAPVPYPDPLEPRPG
# B3: MBP fusion 435 (H2C-3aa-H2C-3aa-H2C) (other, not shown: large carriers; small tags and cut ends)
# chain: NNNNLGIEGRISEFIEGRAQPAMAFHENFYDWFVRQVSGGSFHENFYDWFVRQVSGGSFHENFYDWFVRQVSAAAGAPVPYPDPLEPRAA
# modifications: N-terminus of the given chain is fused to the C-terminus of MBP, which is not given
# notes: also called RB435
# B4: MBP fusion 463 (H2C-3aa-H2C) (other, not shown: large carriers; small tags and cut ends)
# chain: NNNNLGIEGRISEFIEGRAQPAMAFHENFYDWFVRQVSGGSFHENFYDWFVRQVSAAAGAPVPYPDPLEPRAA
# modifications: N-terminus of the given chain is fused to the C-terminus of MBP, which is not given
# notes: also called RB463
# B5: MBP fusion 464 (LF-H2C) (other, not shown: large carriers; small tags and cut ends)
# chain: {MBP}-NNNNLGIEGRISEFIEGRDYKDDDDKFHENFYDWFVRQVSAAGAPVPYPDPLEPRAA
# notes: LF = long FLAG; also called RB464
# B6: D112-12-D112 (peptide)
# chain: ADYKDCWARPCGDAANFYDWFVQQASKKGGSGGSGGSGGSCWARPCGDAANFYDWFVQQASKKAAAGAPVPYPDPLEPRPG
# Biological target: T1, IGF-1R on cells (MCF-7, MiaPaCa, FDC-P2 cells expressing human IGF-1R) (human, UniProt P08069 31-1367)
# Test: cell-based or functional assay
row,"Cellular IC50 (M), MiaPaCa cell proliferation",Binder
1,9.4e-06 M,EGYSWLRDVLMEKQAQLKREGSVGRQE [RP56]

# Biological target: T2, His-tagged soluble recombinant human IGF-IR (srhIGF-1R-his) (human, UniProt P08069 31-935)
# T2 construct: extracellular domain; Bought construct; not shown: His tag
# Test: ALPHAScreen competition against b-hIGF-1 on srhIGF-1R-his
row,IC50,Binder
1,0.97 µM,GSLDESFYDWFERQLG [RP9]
2,32 µM,VGRASGFPENFYDWFGRQLSLQSGEQ [H2C-A-H6]
3,0.35 µM,TFYSCLASLLTGTPQPNRGPWERCR [RP6]
4,0.042 µM,CWARPCGDAANFYDWFVQQAS (also called C1 (D112); D112) [C1]

# Biological target: T2, His-tagged soluble recombinant human …
# Test: as above
# Remark: another data set of the same source
row,IC50,Binder
1,0.17 µM,B1

# Biological target: T3, soluble human insulin receptor-immunoglobulin heavy chain chimera (sIR-Fc) (human, UniProt P06213-2 28-944, limits assumed)
# T3 construct: extracellular domain; not shown: immunoglobulin heavy chain constant domains
# Test: FP competition against FITC-RP9 on sIR-Fc
# T3 sequence (P06213 other isoform, or with tags, fused parts or gaps mutant limits assumed): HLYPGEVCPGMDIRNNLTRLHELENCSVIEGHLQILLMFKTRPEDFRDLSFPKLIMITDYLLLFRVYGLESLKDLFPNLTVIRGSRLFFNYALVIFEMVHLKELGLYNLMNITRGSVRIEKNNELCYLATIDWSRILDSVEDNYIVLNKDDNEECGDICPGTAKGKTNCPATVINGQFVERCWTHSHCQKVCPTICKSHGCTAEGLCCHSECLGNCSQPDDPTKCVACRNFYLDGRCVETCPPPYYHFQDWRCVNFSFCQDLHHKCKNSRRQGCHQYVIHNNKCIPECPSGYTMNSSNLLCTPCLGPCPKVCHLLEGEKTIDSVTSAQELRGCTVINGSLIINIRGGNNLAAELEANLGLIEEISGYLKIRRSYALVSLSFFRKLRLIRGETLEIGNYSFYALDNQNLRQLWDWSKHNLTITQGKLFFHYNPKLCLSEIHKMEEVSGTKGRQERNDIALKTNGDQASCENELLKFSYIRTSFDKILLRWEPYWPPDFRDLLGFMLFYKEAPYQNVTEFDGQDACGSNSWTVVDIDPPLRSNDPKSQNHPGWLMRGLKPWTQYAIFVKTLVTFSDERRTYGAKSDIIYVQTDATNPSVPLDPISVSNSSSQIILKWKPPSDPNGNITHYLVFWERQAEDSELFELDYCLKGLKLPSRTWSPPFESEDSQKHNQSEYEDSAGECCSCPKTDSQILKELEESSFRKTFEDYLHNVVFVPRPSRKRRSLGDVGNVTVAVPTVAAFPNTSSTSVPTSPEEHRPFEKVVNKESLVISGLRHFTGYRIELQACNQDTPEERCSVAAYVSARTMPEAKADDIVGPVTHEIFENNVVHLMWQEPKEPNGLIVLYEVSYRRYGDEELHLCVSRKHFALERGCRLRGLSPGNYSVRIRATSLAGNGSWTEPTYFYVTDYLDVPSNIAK
row,IC50,Binder
1,0.052 µM,CWARPCGDAANFYDWFVQQAS (also called C1 (D112); D112) [C1]

# Biological target: T2, His-tagged soluble recombinant human …
# Test: ALPHAScreen competition against b-hIGF-1 on srhIGF-1R-his
# Remark: another data set of the same source
row,IC50,Binder
1,0.6 µM,GIISQSCPESFYDWFAGQVSDPWWCW [G33]
2,1.1 µM,B2
3,0.17 µM,B1

# Biological target: T4, human insulin receptor (HIR) (human, UniProt P06213-2 28-1370, limits assumed)
# Test: HIR binding assay (method not restated)
# T4 sequence (P06213 other isoform, or with tags, fused parts or gaps limits assumed): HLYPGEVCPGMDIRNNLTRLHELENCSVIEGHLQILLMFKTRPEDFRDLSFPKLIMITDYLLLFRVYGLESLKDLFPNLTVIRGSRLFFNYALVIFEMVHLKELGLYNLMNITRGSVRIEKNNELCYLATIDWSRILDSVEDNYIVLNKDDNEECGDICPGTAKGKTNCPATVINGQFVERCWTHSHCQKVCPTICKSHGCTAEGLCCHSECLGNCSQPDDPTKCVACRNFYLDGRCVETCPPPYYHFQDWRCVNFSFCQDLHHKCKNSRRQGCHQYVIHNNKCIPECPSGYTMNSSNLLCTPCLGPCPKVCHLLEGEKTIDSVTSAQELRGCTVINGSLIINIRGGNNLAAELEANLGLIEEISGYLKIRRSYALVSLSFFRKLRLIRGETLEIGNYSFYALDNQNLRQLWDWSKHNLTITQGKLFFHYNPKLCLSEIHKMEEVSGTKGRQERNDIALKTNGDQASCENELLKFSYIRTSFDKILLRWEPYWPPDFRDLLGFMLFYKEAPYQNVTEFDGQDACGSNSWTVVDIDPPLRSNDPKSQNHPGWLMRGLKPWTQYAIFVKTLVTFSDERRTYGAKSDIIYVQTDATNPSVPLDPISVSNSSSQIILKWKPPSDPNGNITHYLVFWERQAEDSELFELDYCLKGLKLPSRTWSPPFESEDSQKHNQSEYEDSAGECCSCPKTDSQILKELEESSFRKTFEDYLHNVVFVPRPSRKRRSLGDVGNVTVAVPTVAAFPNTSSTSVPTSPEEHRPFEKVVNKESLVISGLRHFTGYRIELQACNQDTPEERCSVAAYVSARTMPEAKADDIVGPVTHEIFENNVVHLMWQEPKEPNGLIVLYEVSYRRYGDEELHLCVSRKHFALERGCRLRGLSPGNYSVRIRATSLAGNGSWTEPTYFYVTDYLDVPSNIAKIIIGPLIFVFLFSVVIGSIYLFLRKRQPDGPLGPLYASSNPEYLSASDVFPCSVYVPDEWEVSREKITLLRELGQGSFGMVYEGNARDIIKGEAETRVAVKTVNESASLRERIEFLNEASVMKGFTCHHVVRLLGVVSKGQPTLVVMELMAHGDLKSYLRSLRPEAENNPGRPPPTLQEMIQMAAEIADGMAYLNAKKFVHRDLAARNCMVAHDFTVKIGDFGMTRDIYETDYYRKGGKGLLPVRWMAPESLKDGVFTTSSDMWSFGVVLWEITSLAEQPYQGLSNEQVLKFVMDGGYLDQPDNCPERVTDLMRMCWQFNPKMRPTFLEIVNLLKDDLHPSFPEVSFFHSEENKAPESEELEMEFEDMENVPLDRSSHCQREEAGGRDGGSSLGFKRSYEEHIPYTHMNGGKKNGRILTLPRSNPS
row,Kd,Binder
1,2 µM,B3
2,0.96 µM,B4

# Biological target: T4, human insulin receptor (HIR)
# Test: HIR binding assay of MBP fusions (method not restated)
row,Kd,Binder
1,2 µM,B3
2,0.96 µM,B4
3,0.039 µM,B5

# Biological target: T5, soluble human insulin receptor-immunoglobulin heavy chain chimera (sIR-Fc; Bass et al., 1996) (human, UniProt P06213-2 28-944)
# T5 construct: extracellular domain; also called soluble IR (Bass construct); Eu3+-sIR-Fc; not shown: immunoglobulin heavy chain constant domains per Bass et al., 1996
# Test: phage ELISA
# T5 sequence (P06213 other isoform, or with tags, fused parts or gaps mutant): as the sequence (P06213 other isoform, or with tags, fused parts or gaps mutant limits assumed) above
IR/IGF-1R ratio comparison,ratio over background,Binder
0.1,–,LGVTDGFYAALGYLIHGVGQF [20E2B-3-D11-IGFR]
0.1,–,RCEEKQAEVGPSSDPFYHKMSELLGCR [B6Hα-3-E9-IR]
0.1,–,QPDHSYFYSLLQELVGSEERL [20E2B-4-F9-IGFR]
0.2,–,IIGGFYSYFNSVLRLGT (not fully specified) [NNRPγ-4-A1-IR]
0.3,–,MMVVDGFYDALHQLVVAQSLG [20E2A-3-D10-IGFR]
0.1,–,GGTEVDFYRALERLVRGQLGL [20E2B-3-D8-IGFR]
0.1,2,YRGMLVLGRISGGAGKAASERPARIGQKVSAVNFYDWFV [A6L-0-H3-IR]
0.2,–,GCVVEWQKWHGASDPFYHKLSELGGCS [B6Hα-3-F10-IR]
0.1,–,YRGMLVLGRSSDGAGKVAFERPARIGQTVFAVNFYDWFV [A6L-0-E6-IR]
0.1,–,SSYGCDGFYLMLFSLGLVASQELEC [20C-3-A1-IGFR]
0.1,–,DRDFCRFYERLTALVGGQVDGGWPC [20C-3-F6-IGFR]
0.1,–,LQPCSGFYECIERLIGVKLSG (not fully specified; cysteine pairing not given here) [20E2Bβ-4-G7-IR]
0.1,–,GNGDGMFYQLLSLLVGRDMHV [20E2B-3-C2-IGFR]
0.1,–,RGMKEEVLVGGSTDPFYHKLSELLQGS [B6Hα-3-F11-IR]
0.1,–,LRIANLFYQRLWDLAFGGGG [20E2B-3-E8-IFGR]
0.3,–,GGTKAVAKVGTRDDPFYHKLSELLQGS [B6Hα-4-G8-IR]
0.2,–,GCEVIVEEGDSADPFYHKLSELCQGS [B6Hα-2-D1-IR]
0.3,1.9,RGAVAGFHDQFYDWFDRQVSRVHKFG [H2CA-4-H9-IGFR]
0.1,–,QPAPDGFYSALMKLIGRGGVS [20E2B-3-C8-IGFR]

# Biological target: T6, soluble IGF-1R (recombinant human IGF-1R extracellular domain, R&D Systems Cat. # 391-GR/CF) (human, UniProt P08069 31-935)
# T6 construct: extracellular domain; LANCE Eu3+-labelled in the TR-FRET assays; also called sIGF-1R; rhIGF-1R
# Test: phage ELISA
row,IGF-1R/IR ratio comparison,Binder
1,6.7,RGIVAMVEATEVGSDHDPFYHKLSELVQGS [B6Hα-2-C7-IR]
2,7.6,LGVTDGFYAALGYLIHGVGQF [20E2B-3-D11-IGFR]
3,20.5,CCTTEMVVMDARDDPFYHKLSELVTGG [B6Hα-1-B5-IR]
4,2.2,HLADGQFHEKFYDWFERQISSRCNDC [H2CA-3-E11-IGFR]
5,14.6,RGCNDDGGKGWSDDPFYHKLSELICGG [B6Hα-1-A2-IR]
6,4.4,GRTMAVMAAGGPDDPFYHKLSELVQGG [B6Hα-2-D6-IR]
7,14.1,DRDFCRFYERLTALVGGQVDGGWPC [20C-3-F6-IGFR]
8,13.8,GNGDGMFYQLLSLLVGRDMHV [20E2B-3-C2-IGFR]
9,4.2,GCEVIVEEGDSADPFYHKLSELCQGS [B6Hα-2-D1-IR]

# Biological target: T2, His-tagged soluble recombinant human …
# Test: ALPHAScreen competition against b-hIGF-1 on srhIGF-1R-his
# Remark: another data set of the same source
row,IC50,Binder
1,60 µM,EGYSWLRDVLMEKQAQLKREGSVGRQE [RP56]

# Biological target: T1, IGF-1R on cells (MCF-7, MiaPaCa, FDC-P2 …)
# Test: cell-based or functional assay
# Remark: another data set of the same source
row,"Cellular EC50 (M), FDC-P2 cell proliferation",Binder
1,3e-06 M and 1e-06 M,WLDQERAWLWCEISGRGCLS [D815]
2,2e-06 M,GIISQSCPESFYDWFAGQVSDPWWCW [G33]

# Biological target: T1, IGF-1R on cells (MCF-7, MiaPaCa, FDC-P2 …)
# Test: cell-based or functional assay
# Remark: another data set of the same source
row,"Cellular IC50 (M), FDC-P2 cell proliferation",Binder
1,2e-06 M,GSLDESFYDWFERQLG [RP9]
2,3e-07 M,VGRASGFPENFYDWFGRQLSLQSGEQ [H2C-A-H6]
3,1e-06 M,TFYSCLASLLTGTPQPNRGPWERCRKK (disulfide 5-24 (inferred)) [RP6KK]
4,4e-06 M,CWARPCGDAANFYDWFVQQAS (also called C1 (D112); D112) [C1]

# Biological target: T2, His-tagged soluble recombinant human …
# Test: ALPHAScreen competition against b-hIGF-1 on srhIGF-1R-his
# Remark: another data set of the same source
row,IC50,Binder
1,32 µM,VGRASGFPENFYDWFGRQLSLQSGEQ [H2C-A-H6]
2,0.18 µM,TFYSCLASLLTGTPQPNRGPWERCRKK (disulfide 5-24 (inferred)) [RP6KK]

# Biological target: T1, IGF-1R on cells (MCF-7, MiaPaCa, FDC-P2 …)
# Test: cell-based or functional assay
# Remark: another data set of the same source
row,"Cellular EC50 (M), MiaPaCa cell proliferation",Binder
1,2.5e-06 M,B6
2,2.2e-06 M,B1

# Biological target: T1, IGF-1R on cells (MCF-7, MiaPaCa, FDC-P2 …)
# Test: cell-based or functional assay
# Remark: another data set of the same source
row,"Cellular EC50 (M), MCF-7 cell proliferation",Binder
1,3.5e-07 M,B6
2,3e-07 M,GIISQSCPESFYDWFAGQVSDPWWCW [G33]
3,4.1e-07 M,B2
4,2.5e-07 M,B1

# Biological target: T2, His-tagged soluble recombinant human …
# Test: ALPHAScreen competition against b-hIGF-1 on srhIGF-1R-his
# Remark: another data set of the same source
row,IC50,Binder
1,0.6 µM,GIISQSCPESFYDWFAGQVSDPWWCW [G33]

# Biological target: T1, IGF-1R on cells (MCF-7, MiaPaCa, FDC-P2 …)
# Test: cell-based or functional assay
# Remark: another data set of the same source
row,"Cellular IC50 (M), MCF-7 cell proliferation",Binder
1,4e-07 M,VGRASGFPENFYDWFGRQLSLQSGEQ [H2C-A-H6]
2,9e-06 M,TFYSCLASLLTGTPQPNRGPWERCRKK (disulfide 5-24 (inferred)) [RP6KK]
